# From publication PMC4854385, “The Caenorhabditis elegans Protein FIC-1 Is an AMPylase That Covalently Modifies Heat-Shock 70 Family Proteins, Translation Elongation Factors and Histones” (PLoS Genetics, 2016)
# B1: FIC-1_(134-508) E274G/I298D (domain or fragment, C. elegans, UniProt Q23544 134-508, looked up)
# chain: DEKRENDPAKVKEAILAAKAAGRSRKDGNLERAMTIMEHAMALAPTNPQILIEMGQIREMHNELVEADQCYVKALAYDPGNSEALVLRARTTPLVSAIDRKMLRSVHDLRDEFNHLQHSTALRRMMRETYFLYVYHTVAIGGNTLSLGQTRAILESGMVIPGKSDREHNEVIGMDAALRFLNCSLLSKEHDEISIDDILEMHRRVLGNADPVEAGRIRTTQVYVGRFTPVSPEYVMEQLKDIVDWLNDESTLTIDPIERAAIAHYKLVLVHPFTDGNGRTARLLLNLIMMRSGFPPVILPVETRAEYYASLHVANLGDLRPFVRYVAKHSEASIQRYIGAMKTSSDNILNSGDSKLTPEESEVSEKIEAECRAGN
# B2: FIC-1_(134-508) (domain or fragment, C. elegans, UniProt Q23544 134-508, looked up)
# chain: DEKRENDPAKVKEAILAAKAAGRSRKDGNLERAMTIMEHAMALAPTNPQILIEMGQIREMHNELVEADQCYVKALAYDPGNSEALVLRARTTPLVSAIDRKMLRSVHDLRDEFNHLQHSTALRRMMRETYFLYVYHTVAIEGNTLSLGQTRAILESGMVIPGKSIREHNEVIGMDAALRFLNCSLLSKEHDEISIDDILEMHRRVLGNADPVEAGRIRTTQVYVGRFTPVSPEYVMEQLKDIVDWLNDESTLTIDPIERAAIAHYKLVLVHPFTDGNGRTARLLLNLIMMRSGFPPVILPVETRAEYYASLHVANLGDLRPFVRYVAKHSEASIQRYIGAMKTSSDNILNSGDSKLTPEESEVSEKIEAECRAGN
# notes: C. elegans Fic protein FIC-1, residues 134-508; transmembrane helix and membrane proximal domain excluded; also called FIC-1 wild type; FIC-1 wildtype (wt); source: E. coli LOBSTR-RIL(DE3), purified (Ni-Sepharose, size-exclusion chromatography); not shown: His6, N-terminal, kept
# B3: FIC-1_(134-508) E274G (domain or fragment, C. elegans, UniProt Q23544 134-508, looked up)
# chain: DEKRENDPAKVKEAILAAKAAGRSRKDGNLERAMTIMEHAMALAPTNPQILIEMGQIREMHNELVEADQCYVKALAYDPGNSEALVLRARTTPLVSAIDRKMLRSVHDLRDEFNHLQHSTALRRMMRETYFLYVYHTVAIGGNTLSLGQTRAILESGMVIPGKSIREHNEVIGMDAALRFLNCSLLSKEHDEISIDDILEMHRRVLGNADPVEAGRIRTTQVYVGRFTPVSPEYVMEQLKDIVDWLNDESTLTIDPIERAAIAHYKLVLVHPFTDGNGRTARLLLNLIMMRSGFPPVILPVETRAEYYASLHVANLGDLRPFVRYVAKHSEASIQRYIGAMKTSSDNILNSGDSKLTPEESEVSEKIEAECRAGN
# notes: C. elegans Fic protein FIC-1, residues 134-508, constitutively active mutant; transmembrane helix and membrane proximal domain excluded; Non-cleavable N-terminal 6x His tag; also called FIC-1 E274G; source: E. coli LOBSTR-RIL(DE3), purified (Ni-Sepharose, size-exclusion chromatography); not shown: His6, N-terminal, kept
# Key:
# [1] = biological target: the molecule itself; experiment: cell-based or functional assay
# [2] = biological target: the molecule itself; experiment: crystal structure; hanging drop vapor diffusion, 18°C, 0.1 M MES pH 6.5, 1.1 M ammonium sulfate; two molecules in the asymmetric unit
Protein,"self-AMPylation of FIC-1 E274G/I298D relative to FIC-1 E274G (in vitro AMPylation with α33P-ATP, autoradiography) [1]","target (histone H3) AMPylation by FIC-1 E274G/I298D relative to FIC-1 E274G (in vitro AMPylation with α33P-ATP, autoradiography) [1]",binding result [2]
B1,46%,11%,–
B2,–,–,binds
B3,–,–,binds
